Laboratory results: paper PMC9516175

Tested on: VIRP1 (Arabidopsis thaliana)
Assay: EMSA

Substance	binding signal (% of WT shifted)
PSTVd WT	100
Q-satRNA WT	100
HSVd WT	100
